In publication PMC8625556:

Tested on: GST:p33ΔTMD (Citrus tristeza virus (isolate T36))
Assay: EMSA

With LMT1 full length (1-780) the Kd was 122 nM.
